Data from PMC7545093.

Target: Vibrio cholerae type IVa pilus secretin PilQ, N-terminally deca-histidine tagged (Vibrio cholerae)
Assay: cryo-EM structure

Work on “Vibrio cholerae type IVa pilus secretin PilQ, N-terminally deca-histidine tagged (natural protein)” yielded a stoichiometry N of 14.
